# B1: TrkC-Fc (soluble purified TrkC ectodomain fused to human immunoglobulin Fc region) (Fc fusion, rat, UniProt Q03351 32-429, looked up)
# chain: CPANCVCSKTEINCRRPDDGNLFPLLEGQDSGNSNGNASINITDISRNITSIHIENWRGLHTLNAVDMELYTGLQKLTIKNSGLRNIQPRAFAKNPHLRYINLSSNRLTTLSWQLFQTLSLRELRLEQNFFNCSCDIRWMQLWQEQGEARLDSQSLYCISADGSQLPLFRMNISQCDLPEISVSHVNLTVREGDNAVITCNGSGSPLPDVDWIVTGLQSINTHQTNLNWTNVHAINLTLVNVTSEDNGFTLTCIAENVVGMSNASVALTVYYPPRVVSLVEPEVRLEHCIEFVVRGNPTPTLHWLYNGQPLRESKIIHMDYYQEGEVSEGCLLFNKPTHYNNGNYTLIAKNALGTANQTINGHFLKEPFPESTDFFDFESDASPTPPITVTHKPEEDT
# Biological target: PTPσ-CFP (protein tyrosine phosphatase receptor PTPσ expressed in COS cells) (UniProt Q13332 30-1948)
# Assay: cell-surface binding assay
# PTPσ-CFP (protein tyrosine phosphatase receptor PTPσ expressed in COS cells), sequence (Q13332 30-1948): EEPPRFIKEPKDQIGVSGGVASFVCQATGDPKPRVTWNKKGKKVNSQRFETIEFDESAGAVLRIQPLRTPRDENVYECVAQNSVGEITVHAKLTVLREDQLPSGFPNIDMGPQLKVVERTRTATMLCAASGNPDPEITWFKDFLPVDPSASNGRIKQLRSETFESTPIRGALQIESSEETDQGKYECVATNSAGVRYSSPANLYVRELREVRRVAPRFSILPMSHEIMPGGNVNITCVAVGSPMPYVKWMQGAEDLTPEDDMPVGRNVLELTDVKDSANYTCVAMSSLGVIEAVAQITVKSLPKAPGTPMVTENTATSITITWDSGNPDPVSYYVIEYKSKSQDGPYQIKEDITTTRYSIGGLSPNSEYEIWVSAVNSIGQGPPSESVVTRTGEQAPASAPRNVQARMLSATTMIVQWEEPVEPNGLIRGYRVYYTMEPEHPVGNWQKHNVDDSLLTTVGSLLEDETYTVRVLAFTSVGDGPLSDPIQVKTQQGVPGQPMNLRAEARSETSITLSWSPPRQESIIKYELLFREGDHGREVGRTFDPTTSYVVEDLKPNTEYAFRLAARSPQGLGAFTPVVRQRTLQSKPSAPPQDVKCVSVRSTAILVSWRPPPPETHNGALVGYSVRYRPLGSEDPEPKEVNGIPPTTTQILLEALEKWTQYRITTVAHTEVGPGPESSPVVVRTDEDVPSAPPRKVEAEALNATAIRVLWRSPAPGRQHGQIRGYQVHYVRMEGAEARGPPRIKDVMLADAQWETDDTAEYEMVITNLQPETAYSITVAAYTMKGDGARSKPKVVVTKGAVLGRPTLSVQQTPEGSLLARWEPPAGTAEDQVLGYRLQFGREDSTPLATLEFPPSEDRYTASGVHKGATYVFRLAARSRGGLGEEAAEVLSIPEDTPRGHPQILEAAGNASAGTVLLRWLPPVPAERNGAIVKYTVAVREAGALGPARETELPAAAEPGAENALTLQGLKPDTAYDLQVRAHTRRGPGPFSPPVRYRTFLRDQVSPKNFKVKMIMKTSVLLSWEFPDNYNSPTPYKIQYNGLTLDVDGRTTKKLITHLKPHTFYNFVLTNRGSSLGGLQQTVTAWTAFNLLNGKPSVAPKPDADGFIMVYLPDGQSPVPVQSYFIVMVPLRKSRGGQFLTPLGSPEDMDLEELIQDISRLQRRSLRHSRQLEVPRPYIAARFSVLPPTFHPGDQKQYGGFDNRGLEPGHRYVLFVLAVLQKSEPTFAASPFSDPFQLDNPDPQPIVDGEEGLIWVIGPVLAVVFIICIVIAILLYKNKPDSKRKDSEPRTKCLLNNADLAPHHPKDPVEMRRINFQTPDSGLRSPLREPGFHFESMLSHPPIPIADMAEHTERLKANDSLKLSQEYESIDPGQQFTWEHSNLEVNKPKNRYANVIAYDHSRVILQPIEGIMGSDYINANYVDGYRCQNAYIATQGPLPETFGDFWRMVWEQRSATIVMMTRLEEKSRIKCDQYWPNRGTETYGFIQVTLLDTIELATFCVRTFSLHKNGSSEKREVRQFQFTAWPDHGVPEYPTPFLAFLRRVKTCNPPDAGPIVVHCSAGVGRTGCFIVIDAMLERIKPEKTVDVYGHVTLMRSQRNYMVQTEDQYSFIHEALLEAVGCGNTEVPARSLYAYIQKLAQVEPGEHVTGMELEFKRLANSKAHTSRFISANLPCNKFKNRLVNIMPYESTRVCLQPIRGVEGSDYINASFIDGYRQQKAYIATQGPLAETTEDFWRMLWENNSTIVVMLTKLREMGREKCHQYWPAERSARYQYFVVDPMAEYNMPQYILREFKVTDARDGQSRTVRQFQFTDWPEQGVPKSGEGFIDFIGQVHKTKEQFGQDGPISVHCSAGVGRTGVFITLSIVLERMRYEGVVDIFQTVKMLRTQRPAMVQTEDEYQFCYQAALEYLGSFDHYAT
binder,measurement,value
B1,Kd,9.3 nM

# Reference: article PMC3056349 (Neuron, 2011)
